Assay results reported in article doi:10.1101/2025.01.11.632576 (bioRxiv, 2025).
Changes are numbered by the printed parent chain. Names may count otherwise. Each block holds one molecule with its values, some of them ahead of it.

How the values were obtained:
Test in all cases: SPR
[1] = target: HER2 VHH (2Rs15d) I29D
[2] = target: HER2 VHH (2Rs15d) L102A
[3] = target: HER2 VHH (2Rs15d) L102S
[4] = target: recombinant human HER2 (AA 23-653) (Homo sapiens, UniProt P04626)

- Kd [1]: 3.1 nM
- Kd [2]: 3.1 nM
- Kd [3]: 3.6 nM
Molecule: recombinant human HER2 (AA 23-653) (from UniProt P04626 23-653) (domain or fragment)

- binding result [4]: binds
B8: HER2 VHH (2Rs15d) G54D (VHH)
VHH: QVQLQESGGGSVQAGGSLKLTCAASGYIFNSCGMGWYRQSPGRERELVSRISDDGDTWHKESVKGRFTISQDNVKKTLYLQMNSLKPEDTAVYFCAVCYNLETYWGQGTQVTVSS

- binding result [4]: binds
B9: HER2 VHH (2Rs15d) N101D (VHH)
VHH: B8 VHH with D53G, N100D

- binding result [4]: binds
B10: HER2 VHH (2Rs15d) G54K (VHH)
VHH: B8 VHH with D53K

- binding result [4]: binds
B12: HER2 VHH (2Rs15d) D55K (VHH)
VHH: B8 VHH with D53G, D54K

- binding result [4]: binds
B13: HER2 VHH (2Rs15d) Y28D (VHH)
VHH: B8 VHH with Y27D, D53G

- binding result [4]: binds
B14: HER2 VHH (2Rs15d) T58A (VHH)
VHH: B8 VHH with D53G, T57A

- binding result [4]: binds
B15: HER2 VHH (2Rs15d) T58K (VHH)
VHH: B8 VHH with D53G, T57K

Further lines, the molecule ahead of its results:

B1: HER2 VHH (2Rs15d) Y28K (VHH)
VHH: B8 VHH with Y27K, D53G
- binding result [4]: binds

B2: HER2 VHH (2Rs15d) Y28A (VHH)
VHH: B8 VHH with Y27A, D53G
- binding result [4]: binds

B3: HER2 VHH (2Rs15d) Y28S (VHH)
VHH: B8 VHH with Y27S, D53G
- binding result [4]: binds

B4: HER2 VHH (2Rs15d) T58D (VHH)
VHH: B8 VHH with D53G, T57D
- binding result [4]: binds

B5: HER2 VHH (2Rs15d) G54A (VHH)
VHH: B8 VHH with D53A
- binding result [4]: binds

B6: HER2 VHH (2Rs15d) T58S (VHH)
VHH: B8 VHH with D53G, T57S
- binding result [4]: binds

B7: HER2 VHH (2Rs15d) G54S (VHH)
VHH: B8 VHH with D53S
- binding result [4]: binds

B11: HER2 VHH (2Rs15d) S32K (VHH)
VHH: B8 VHH with S31K, D53G
- Kd [4]: 31 nM
